In patent publication US20210009686A1 one finds OD450/µg IgG data, which are given here for one substance.

For test [1], the target named is claudin 18.2 (CLDN18.2) (human). Kind of test: in-cell ELISA on HEK293-CLDN18.2 cells. (ELISA stands for enzyme-linked immunosorbent assay.)
Test [2] addresses claudin 18.1 (CLDN18.1) (human) (UniProt P56856). Kind of test: in-cell ELISA on HEK293-CLDN18.1 cells.

Chain of claudin 18.1 (CLDN18.1) (human) (P56856 whole entry): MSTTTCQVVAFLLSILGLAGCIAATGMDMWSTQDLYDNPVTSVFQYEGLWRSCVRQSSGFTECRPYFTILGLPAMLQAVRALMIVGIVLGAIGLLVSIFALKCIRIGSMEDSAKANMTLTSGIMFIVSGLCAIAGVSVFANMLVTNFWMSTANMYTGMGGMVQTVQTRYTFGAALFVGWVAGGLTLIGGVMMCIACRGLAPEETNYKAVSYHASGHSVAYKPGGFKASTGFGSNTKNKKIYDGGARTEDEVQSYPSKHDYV

Turning to mouse IgG (control) (antibody), the OD450/µg IgG in test [1] was 3.23 OD450/µg IgG; in test [2], 1.54 OD450/µg IgG.
